Assay [1] concerns the target T1, PMEL17 25-105 with an N-terminal gD tag and a C-terminal GPI anchor (human, UniProt P40967 25-105, C-terminal GPI anchor).
T1 construct: C-terminal deletion, transiently expressed on 293 cells
T1 sequence: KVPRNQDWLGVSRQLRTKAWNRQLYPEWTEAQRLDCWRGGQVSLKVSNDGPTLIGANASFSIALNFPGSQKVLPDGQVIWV
Put plainly: FACS on transiently transfected 293 cells. From the text: (§1) In addition, C-terminal deletions with an N-terminal gD tag and a C-terminal GPI anchor were transiently transfected into 293 cells and analyzed for antibody binding by FACS. The C-terminal deletions tested included PMEL172₅₋₁₂₅, PMEL17₂₅₋₁₀₅, PMEL17₂₅₋₈₅, PMEL17₂₅₋₆₅, and PMEL17₂₅₋₄₅.

In assay [2] the target is T2, PMEL17 25-65 with an N-terminal gD tag and a C-terminal GPI anchor (human, UniProt P40967 25-65, not fully specified; C-terminal GPI anchor).
T2 construct: C-terminal deletion, transiently expressed on 293 cells
T2 chain: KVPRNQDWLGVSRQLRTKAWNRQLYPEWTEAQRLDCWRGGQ
Put plainly: FACS on transiently transfected 293 cells.
Text: as §1

Assay [3] has as its target T3, PMEL17 25-125 with an N-terminal gD tag and a C-terminal GPI anchor (human, UniProt P40967 25-125, C-terminal GPI anchor).
T3 construct: C-terminal deletion, transiently expressed on 293 cells
T3 sequence: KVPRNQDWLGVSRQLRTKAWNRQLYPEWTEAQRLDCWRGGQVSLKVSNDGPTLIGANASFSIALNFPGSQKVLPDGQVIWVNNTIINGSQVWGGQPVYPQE
Put plainly: FACS on transiently transfected 293 cells.
Text: as §1

In assay [4] the target is T4, PMEL17 25-85 with an N-terminal gD tag and a C-terminal GPI anchor (human, UniProt P40967 25-85, C-terminal GPI anchor).
T4 construct: C-terminal deletion, transiently expressed on 293 cells
T4 sequence: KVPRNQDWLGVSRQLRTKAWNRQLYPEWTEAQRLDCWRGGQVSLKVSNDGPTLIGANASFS
Put plainly: FACS on transiently transfected 293 cells.
Text: as §1

For assay [5], the target named is T5, human PMEL17 (human, UniProt P40967 25-661).
T5 construct: Untagged PMEL17 as it occurs on melanoma cell lines, normal human melanocytes, PC3 cells stably expressing PMEL17 cDNA, and in human tissue sections; also called Melanocyte protein PMEL17
T5 sequence: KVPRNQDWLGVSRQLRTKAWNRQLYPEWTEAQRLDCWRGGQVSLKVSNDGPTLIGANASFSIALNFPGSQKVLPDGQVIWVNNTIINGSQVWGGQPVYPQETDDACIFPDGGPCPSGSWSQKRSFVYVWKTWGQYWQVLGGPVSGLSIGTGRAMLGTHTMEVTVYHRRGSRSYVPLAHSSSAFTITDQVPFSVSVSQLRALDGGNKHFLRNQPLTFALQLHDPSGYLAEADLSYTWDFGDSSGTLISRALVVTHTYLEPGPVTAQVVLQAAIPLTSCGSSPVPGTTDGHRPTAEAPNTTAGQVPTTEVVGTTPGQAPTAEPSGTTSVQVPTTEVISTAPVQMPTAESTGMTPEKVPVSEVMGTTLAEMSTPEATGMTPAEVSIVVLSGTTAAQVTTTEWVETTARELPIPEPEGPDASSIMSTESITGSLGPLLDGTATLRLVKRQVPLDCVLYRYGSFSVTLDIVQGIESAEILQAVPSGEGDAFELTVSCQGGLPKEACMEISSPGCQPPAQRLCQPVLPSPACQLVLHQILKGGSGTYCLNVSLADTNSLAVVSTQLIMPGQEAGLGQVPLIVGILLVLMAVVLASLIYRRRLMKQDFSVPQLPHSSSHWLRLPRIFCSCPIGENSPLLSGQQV
As to the kind of experiment: FACS on live cells, hybridoma supernatant. From the text:
After 10-14 days, the supernatants were harvested and screened by ELISA and FACS. For FACS analysis, melanoma cell lines SK-MEL-23 (provided by Paul Robbins, Center for Cancer Research, Tumor Immunology Section), 1300mel (provided by Paul Robbins, Center for Cancer Research, Tumor Immunology Section), SKMELS (ATCC HTB-70), and UACC257 (National Cancer Institute), normal melanocytes (Invitrogen, Carlsbad, Calif.), and the prostate cancer cell line PC3 stably expressing human PMEL17 were contacted with antibody. One antibody from the PMEL17-immunized mice, designated 17A9, reacted strongly by fluorescent activated cell sorting (FACS) with live melanoma cells, normal human melanocytes and a PC3 cell line stably expressing PMEL17 cDNA, but not the parental PC3 cell line. Another antibody, 77E6, obtained from the DNA-immunized mice, was also positive by FACS, although 77E6 reacted with live cell lines expressing PMEL17 somewhat inconsistently and more weakly than 17A9.

For assay [6], the target named is T6, PMEL17 N-terminal deletion mutant Δ100 (human, UniProt P40967 101-661).
T6 construct: the real construct lacks the N-terminal part; Tested in cell lysates by immunoblot
T6 sequence: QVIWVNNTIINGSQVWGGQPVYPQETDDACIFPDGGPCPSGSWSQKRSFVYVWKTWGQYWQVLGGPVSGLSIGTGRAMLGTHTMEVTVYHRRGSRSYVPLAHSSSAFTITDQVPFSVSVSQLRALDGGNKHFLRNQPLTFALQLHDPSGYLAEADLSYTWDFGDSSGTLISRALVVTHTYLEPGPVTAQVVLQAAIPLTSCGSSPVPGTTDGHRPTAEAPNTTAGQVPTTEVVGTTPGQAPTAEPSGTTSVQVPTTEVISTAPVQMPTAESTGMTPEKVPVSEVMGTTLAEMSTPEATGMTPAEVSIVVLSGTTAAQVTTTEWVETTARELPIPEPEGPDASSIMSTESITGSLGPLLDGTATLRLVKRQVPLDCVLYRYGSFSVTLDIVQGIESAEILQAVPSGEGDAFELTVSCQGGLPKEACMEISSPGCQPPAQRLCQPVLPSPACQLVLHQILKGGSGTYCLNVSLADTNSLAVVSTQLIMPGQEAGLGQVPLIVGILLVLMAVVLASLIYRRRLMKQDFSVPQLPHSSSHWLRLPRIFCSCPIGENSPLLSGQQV
Put plainly: immunoblot of cell lysates. (In western blotting, separated proteins are transferred to a membrane and probed.)

The target in assay [7] is T7, PMEL17 N-terminal deletion mutant Δ255 (human, UniProt P40967 256-661).
T7 construct: the real construct lacks the N-terminal part; Tested in cell lysates by immunoblot
T7 sequence: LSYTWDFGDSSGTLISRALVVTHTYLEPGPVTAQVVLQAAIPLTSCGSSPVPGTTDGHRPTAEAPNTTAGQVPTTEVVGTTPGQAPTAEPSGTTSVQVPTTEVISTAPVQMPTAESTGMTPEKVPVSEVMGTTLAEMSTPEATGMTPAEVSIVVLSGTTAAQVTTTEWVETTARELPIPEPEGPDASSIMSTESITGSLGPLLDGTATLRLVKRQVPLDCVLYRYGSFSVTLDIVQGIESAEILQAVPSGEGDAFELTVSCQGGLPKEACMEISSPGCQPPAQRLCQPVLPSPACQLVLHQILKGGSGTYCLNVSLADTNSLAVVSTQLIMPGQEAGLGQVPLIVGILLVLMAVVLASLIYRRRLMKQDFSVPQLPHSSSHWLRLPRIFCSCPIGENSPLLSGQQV
Put plainly: immunoblot of cell lysates.

B1: 17A9 (antibody, V domains shown)
VH: EVQLQQSGPELVKPGASMKISCKSSGYSFTRYTMNWVKQSHGKNLEWIGVINPYNGGTVYNQKFKGKATLTVDKSSSTAYMELLSLTSEDSAVYYCARTDYDGYAMDYWGQGTSVTVSS
VL: DVQITQSPSYLAASPGETITINCRATKSISKYLAWYQEQPGKTNNLLIYSGSTLQSGIPSRFSGSGSGTDFTLTISSLEPEDFAMYYCQQHNEYPYTFGSGTKLEIK
notes: Mouse monoclonal antibody from a hybridoma (mice immunized with PMEL17 ECD-Fc); also called anti-PMEL17 antibody 17A9
B1: the binding result is reported as “no binding” in assay [1]; “no binding” in assay [2]; “binds” in assay [3]; “no binding” in assay [4]; “binds” in assay [5]; “no binding” in assay [6]. The binding result in assay [7] is “no binding”.

(Values after patent US20170240645A1 (Genentech, published 2017).)
